B1: Bone morphogenetic protein 1 (Homo sapiens), P13497 (parent)
chain: MPGVARLPLLLGLLLLPRPGRPLDLADYTYDLAEEDDSEPLNYKDPCKAAAFLGDIALDEEDLRAFQVQQAVDLRRHTARKSSIKAAVPGNTSTPSCQSTNGQPQRGACGRWRGRSRSRRAATSRPERVWPDGVIPFVIGGNFTGSQRAVFRQAMRHWEKHTCVTFLERTDEDSYIVFTYRPCGCCSYVGRRGGGPQAISIGKNCDKFGIVVHELGHVVGFWHEHTRPDRDRHVSIVRENIQPGQEYNFLKMEPQEVESLGETYDFDSIMHYARNTFSRGIFLDTIVPKYEVNGVKPPIGQRTRLSKGDIAQARKLYKCPACGETLQDSTGNFSSPEYPNGYSAHMHCVWRISVTPGEKIILNFTSLDLYRSRLCWYDYVEVRDGFWRKAPLRGRFCGSKLPEPIVSTDSRLWVEFRSSSNWVGKGFFAVYEAICGGDVKKDYGHIQSPNYPDDYRPSKVCIWRIQVSEGFHVGLTFQSFEIERHDSCAYDYLEVRDGHSESSTLIGRYCGYEKPDDIKSTSSRLWLKFVSDGSINKAGFAVNFFKEVDECSRPNRGGCEQRCLNTLGSYKCSCDPGYELAPDKRRCEAACGGFLTKLNGSITSPGWPKEYPPNKNCIWQLVAPTQYRISLQFDFFETEGNDVCKYDFVEVRSGLTADSKLHGKFCGSEKPEVITSQYNNMRVEFKSDNTVSKKGFKAHFFSDKDECSKDNGGCQQDCVNTFGSYECQCRSGFVLHDNKHDCKEAGCDHKVTSTSGTITSPNWPDKYPSKKECTWAISSTPGHRVKLTFMEMDIESQPECAYDHLEVFDGRDAKAPVLGRFCGSKKPEPVLATGSRMFLRFYSDNSVQRKGFQASHATECGGQVRADVKTKDLYSHAQFGDNNYPGGVDCEWVIVAEEGYGVELVFQTFEVEEETDCGYDYMELFDGYDSTAPRLGRYCGSGPPEEVYSAGDSVLVKFHSDDTITKKGFHLRYTSTKFQDTLHSRK
partner: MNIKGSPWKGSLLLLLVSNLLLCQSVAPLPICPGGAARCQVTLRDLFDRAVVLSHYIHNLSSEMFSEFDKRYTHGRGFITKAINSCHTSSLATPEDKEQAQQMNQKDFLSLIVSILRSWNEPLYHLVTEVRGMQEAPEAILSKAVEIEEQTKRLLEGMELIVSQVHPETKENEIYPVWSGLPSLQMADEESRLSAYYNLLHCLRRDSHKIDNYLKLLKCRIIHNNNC
B2: Bone morphogenetic protein 1 (Homo sapiens), P13497 (parent)
chain: B1 chain

The variants in one test derive from B1. The note with it: with prl_human PRL.
As to E214A, the “effect of a mutation on the interaction” value is “disrupting interaction strength”.

Another test covers variants of B2. The note with it: with soma_human GH1, P01241.
Chain of soma_human GH1, P01241 (P01241 whole entry): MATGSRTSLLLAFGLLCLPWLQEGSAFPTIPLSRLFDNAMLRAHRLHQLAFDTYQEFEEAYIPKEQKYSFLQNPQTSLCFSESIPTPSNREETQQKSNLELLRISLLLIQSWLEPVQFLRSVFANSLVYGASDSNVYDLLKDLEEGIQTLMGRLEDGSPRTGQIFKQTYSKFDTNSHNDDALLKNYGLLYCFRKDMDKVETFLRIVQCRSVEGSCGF
On to E214A, for which the “effect of a mutation on the interaction” value is reported as “disrupting interaction strength”.
